Data: publication PMC12192291, “Ancestral [Fe-S] biogenesis system SMS has a unique mechanism of cluster assembly and sulfur utilization” (PLOS Biology, 2025)

T1: SmsC (Methanocaldococcus jannaschii, UniProt Q60350)
T1 sequence (Q60350 1-250): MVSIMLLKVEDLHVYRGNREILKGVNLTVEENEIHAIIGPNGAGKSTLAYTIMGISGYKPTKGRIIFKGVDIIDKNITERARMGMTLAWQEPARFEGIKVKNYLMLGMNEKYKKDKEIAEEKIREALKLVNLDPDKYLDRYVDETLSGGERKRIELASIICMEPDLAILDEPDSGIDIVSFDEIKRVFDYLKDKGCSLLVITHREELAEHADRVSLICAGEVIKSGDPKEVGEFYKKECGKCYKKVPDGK

B1: SmsC from Methanocaldococcus jannaschii (enzyme)
chain: T1 sequence (Q60350 1-250)
notes: SmsC, Methanocaldococcus jannaschii, ABC ATPase subunit of the SMS system; Monomer in solution without nucleotide; two copies in SmsC2B2; In the cryo-EM sample one of the two copies carries a [4Fe-4S] cluster; also called apo-SmsC; source: E. coli MG1655(DE3) (FBE682), purified (HisTrap, TEV protease, Ni-NTA, SEC); not shown: His6, N-terminal, cleaved
B2: SmsB from Methanocaldococcus jannaschii (natural protein)
chain: MSIKEELMEIIEAIKYTSEKPEEIVHGKGPRIIVKESRIIDVQGDEGIILEGKEEDGKIKAKIIVKKGYKFKYPIHMCFGITEENISQIIDVEIILEEDSSISLMSHCSFPKGKGIKHIMNGIIKIGKNAKFSYNEFHYHGMDGDILVKPTVKVEIDEGGIYISNFTLTKGRIGTLDIEQEIIAKKDAIIDITTRTYAIKEDVVKVNEVVKLNGENAKCIIKSRGAAMDNSKISLKLKIEGNAPYSKGHIDCAEIVKGNAEVESIPIVVVRDDKARITHEAAIGSVDKKQLETLMAKGLDEDEATEIIVKGMIGDL
notes: SmsB, Methanocaldococcus jannaschii, subunit of the SMS system; Mainly a homodimer in solution; two copies in SmsC2B2; also called SmsB2; source: E. coli MG1655(DE3) (FBE682), purified (HisTrap, TEV protease, Ni-NTA, SEC); not shown: His6, N-terminal, cleaved

Key:
SmsC [1] = target: T1, SmsC; experiment: ligand-induced dimerization by size exclusion chromatography; blocks [Fe-S] reconstitution on SmsC2B2; type: binding; design: gene MJ0035; SmsC, His-tag removed
SmsC [2] = target: T1, SmsC; experiment: enzyme-coupled ATPase assay (PK/LDH) on purified protein; type: biochemical; design: gene MJ0035; SmsC alone and SmsC2B2 complex
[3] = target: B2; experiment: SEC; calibrated Hiload 600 Superdex 200, 50 mM Tris-HCl pH 7.8, 100 mM NaCl, 1 mM DTT; no nucleotide; for the complex SmsB2 and SmsC were mixed in molar amounts corresponding to SmsC2B2 and incubated overnight; settings: both partners purified
[4] = target: the molecule itself; experiment: cryo-EM structure; chemically reconstituted [4Fe-4S]-bound SmsC2B2, prepared under anoxic conditions and quickly vitrified (9H78, EMD-51913)
[5] = target: the molecule itself; experiment: SEC; calibrated Hiload 600 Superdex 200, 50 mM Tris-HCl pH 7.8, 100 mM NaCl, 1 mM DTT; no nucleotide; for the complex SmsB2 and SmsC were mixed in molar amounts corresponding to SmsC2B2 and incubated overnight

Molecule: Nc1ncnc2c1ncn2[C@@H]1O[C@H](CO[P@](=O)(O)O[P@](=O)(O)CP(=O)(O)O)[C@@H](O)[C@H]1O [AMP-PCP]
ligand-induced dimerization by size exclusion chromatography; blocks [Fe-S] reco (SmsC [1]): Incubation of SmsC with excess of adenosine-5′-[(β,γ)-methyleno]triphosphate (AMP-PCP) led to SmsC dimer formation

Molecule: Nc1ncnc2c1ncn2[C@@H]1O[C@H](COP(=O)(O)OP(=O)(O)OP(=O)(O)O)[C@@H](O)[C@H]1O [ATP]
enzyme-coupled ATPase assay (PK/LDH) on purified protein (SmsC [2]): 0.98 min⁻¹ (kcat)

Molecule: B1
binding result [3]: binds
binding result [4]: binds

Molecule: B2
stoichiometry N [5]: 2
